This note sets out measurements from patent publication US20230131338A1.

In assay [1] the target is human FXI (zymogen; Factor XI protein, human plasma, Enzyme Research Laboratories cat. HFXI 1111) (human) (UniProt P03951). Kind of assay: SPR (Biacore 8K), mAb captured via anti-human Fc, plasma-derived hFXI injected, 25°C.
Assay [2] shares this target. Description: SPR (Biacore 8K), mAb captured via anti-human Fc, plasma-derived hFXI injected, 37°C.
Assay [3] concerns the target human FXIa (activated; Factor XIa protein, human plasma, Enzyme Research Laboratories cat. HFXIa 1111a) (human) (UniProt P03951). Kind of assay: SPR (Biacore 8K), mAb captured via anti-human Fc, plasma-derived hFXIa injected, 37°C.
Assay [4] has the same target. Description: SPR (Biacore 8K), mAb captured via anti-human Fc, plasma-derived hFXIa injected, 25°C.

As to “Isotype control mAb [REGN1945] (antibody)”, the 25 nM Ag Bound (RU) in assay [1] is 1.3 RU; in assay [2] it was 3.2 RU; in assay [3], 0.3 RU; in assay [4], -1.4 RU.
